# B1: human FcγRIIa (hFcγRIIa) (receptor, UniProt P12318 34-217, looked up)
# chain: QAAAPPKAVLKLEPPWINVLQEDSVTLTCQGARSPESDSIQWFHNGNLIPTHTQPSYRFKANNNDSGEYTCQTGQTSLSDPVHLTVLSEWLVLQTPHLEFQEGETIMLRCHSWKDKPLVKVTFFQNGKSQKFSHLDPTFSIPQANHSHSGDYHCTGNIGYTLFSSKPVTITVQVPSMGSSSPMG
# B2: human Fcγ receptor I (hFcγRI) (receptor, UniProt P12314 16-288, looked up)
# chain: QVDTTKAVITLQPPWVSVFQEETVTLHCEVLHLPGSSSTQWFLNGTATQTSTPSYRITSASVNDSGEYRCQRGLSGRSDPIQLEIHRGWLLLQVSSRVFTEGEPLALRCHAWKDKLVYNVLYYRNGKAFKFFHWNSNLTILKTNISHNGTYHCSGMGKHRYTSAGISVTVKELFPAPVLNASVTSPLLEGNLVTLSCETKLLLQRPGLQLYFSFYMGSKTLRGRNTSSEYQILTARREDSGLYWCEAATEDGNVLKRSPELELQVLGLQLPTP
# B3: N49P7 IgG1 (antibody, V domains shown)
# VH: ADLVQSGAVVKKPGDSVRISCEAQGYRFPDYIIHWIRRAPGQGPEWMGWMNPMGGQVNIPWKFQGRVSMTRDTSIETAFLDLRGLKSDDTAVYYCVRDRSNGSGKRFESSNWFLDLWGRGTAVTIQS
# VL: QSALTQPRSVSASPGQSVTISCTGTHNLVSWCQHQPGRAPKLLIYDFNKRPSGVPDRFSGSGSGGTASLTITGLQDDDDAEYFCWAYEAFGGGTKLTVLG
# B4: 10E8v4 IgG1 (antibody, V domains shown)
# VH: EVRLVESGGGLVKPGGSLRLSCSASGFDFDNAWMTWVRQPPGKGLEWVGRITGPGEGWSVDYAESVKGRFTISRDNTKNTLYLEMNNVRTEDTGYYFCARTGKYYDFWSGYPPGEEYFQDWGQGTLVIVSS
# VL: SELTQDPAVSVALKQTVTITCRGDSLRSHYASWYQKKPGQAPVLLFYGKNNRPSGIPDRFSGSASGNRASLTITGAQAEDEADYYCSSRDKSGSRLSVFGGGTKLTVLS
# B5: human FcγRIIb (hFcγRIIb) (receptor, UniProt P31994 43-217, looked up)
# chain: TPAAPPKAVLKLEPQWINVLQEDSVTLTCRGTHSPESDSIQWFHNGNLIPTHTQPSYRFKANNNDSGEYTCQTGQTSLSDPVHLTVLSEWLVLQTPHLEFQEGETIVLRCHSWKDKPLVKVTFFQNGKSKKFSRSDPNFSIPQANHSHSGDYHCTGNIGYTLYSSKPVTITVQAP
# B6: PGDM1400 IgG1 (antibody, V domains shown)
# VH: QAQLVQSGPEVRKPGTSVKVSCKAPGNTLKTYDLHWVRSVPGQGLQWMGWISHEGDKKVIVERFKAKVTIDWDRSTNTAYLQLSGLTSGDTAVYYCAKGSKHRLRDYALYDDDGALNWAVDVDYLSNLEFWGQGTAVTVSS
# VL: DFVLTQSPHSLSVTPGESASISCKSSHSLIHGDRNNYLAWYVQKPGRSPQLLIYLASSRASGVPDRFSGSGSDKDFTLKISRVETEDVGTYYCMQGRESPWTFGQGTKVDIKR
# Tests used:
# T-01 MB IgG4 WT = assay: BLI, His-tagged receptor on Ni-NTA;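 also: octet RED96 biolayer interferometry of Fc-mutant Multabodies binding human FcγRI, FcγRIIa or FcγRIIb, with the His-tagged receptors captured on Ni-NTA biosensors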
# Description: (§1) The binding kinetics and affinity to Fc receptors—human Fcγ receptor I (hFcγRI), hFcγRIIa, and hFcγRIIb—of Multabodies comprising different Fc mutations were determined by biolayer interferometry (BLI) using an Octet RED96 BLI system (Pall ForteBio).
# (§2) Briefly, His-tagged Fc receptors were loaded onto Ni-NTA biosensors to reach a signal response of 0.8 nm.
# T-01 MB.v2 IgG1 WT = biological target: T1, T-01 MB.v2 IgG1 WT; assay: BLI, His-tagged receptor on Ni-NTA;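 also: octet RED96 biolayer interferometry of Fc-mutant Multabodies binding human FcγRI, FcγRIIa or FcγRIIb, with the His-tagged receptors captured on Ni-NTA biosensors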
# T1 construct: also called Multabody v2
# Description: as §1, §2
# [1] = biological target: T2, T-01 MB.v2 IgG1 M428L N434S (LS); assay: BLI, His-tagged receptor on Ni-NTA;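 also: octet RED96 biolayer interferometry of Fc-mutant Multabodies binding human FcγRI, FcγRIIa or FcγRIIb, with the His-tagged receptors captured on Ni-NTA biosensors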
# T2 construct: also called T-01 MB.v2 IgG1 LS
# Description: as §1, §2
# T-01 MB IgG1 LALAP K288A = biological target: T3, T-01 MB IgG1 LALAP K288A; assay: BLI, His-tagged receptor on Ni-NTA;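 also: octet RED96 biolayer interferometry of Fc-mutant Multabodies binding human FcγRI, FcγRIIa or FcγRIIb, with the His-tagged receptors captured on Ni-NTA biosensors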
# T3 construct: also called K288A+LALAP
# Description: as §1, §2
# T-01 MB IgG1 I253V = assay: BLI, His-tagged receptor on Ni-NTA
# Description: as §1, §2
# T-01 MB IgG1 I253A = assay: BLI, His-tagged receptor on Ni-NTA
# Description: as §1, §2
# T-01 MB IgG1 P329G = assay: BLI, His-tagged receptor on Ni-NTA
# Description: as §1, §2
# [2] = biological target: T4, T-01 MB IgG1 L234A L235A (LALA); assay: BLI, His-tagged receptor on Ni-NTA
# T4 construct: also called T-01 MB IgG1 LALA
# Description: as §1, §2
# T-01 MB IgG1 K288A = assay: BLI, His-tagged receptor on Ni-NTA
# Description: as §1, §2
# T-01 MB IgG1 LALAP I253A = biological target: T5, T-01 MB IgG1 LALAP I253A; assay: BLI, His-tagged receptor on Ni-NTA
# T5 construct: also called I253A+LALAP
# Description: as §1, §2
# T-01 MB IgG1 WT = biological target: T6, T-01 MB IgG1 WT; assay: BLI, His-tagged receptor on Ni-NTA
# T6 construct: also called T-01 MB with wild-type IgG1 Fc
# Description: as §1, §2
# T-01 MB IgG2 K288A P329G = assay: BLI, His-tagged receptor on Ni-NTA
# Description: as §1, §2
# [3] = biological target: T-01 MB IgG1 LALA P329G (LALAP); assay: BLI, His-tagged receptor on Ni-NTA
# Description: as §1, §2
# T-01 MB IgG2 WT = assay: BLI, His-tagged receptor on Ni-NTA
# Description: as §1, §2
# soluble CD4 = soluble CD4 (UniProt P01730 26-390); assay: BLI, His-tagged target on Ni-NTA
# BG5050 SOSIP.664 D368R = biological target: T7, BG5050 SOSIP.664 D368R (HIV-1); assay: BLI, His-tagged target on Ni-NTA
# T7 construct: also called BG505 SOSIP D368R; BG505 SOSIP.664_D368R trimer
binder,measurement,setting,value
B1,Kd,T-01 MB IgG4 WT,0.391 nM
same,koff,T-01 MB IgG4 WT,0.000445 s⁻¹
same,kon,T-01 MB IgG4 WT,1.14e+06 M⁻¹ s⁻¹
same,binding result,T-01 MB.v2 IgG1 WT,no binding (tested: serial dilutions 20-0.65 nM)
same,binding result,[1],no binding (tested: serial dilutions 20-0.65 nM)
same,binding result,T-01 MB IgG1 LALAP K288A,no binding (tested: serial dilutions 20-0.65 nM)
same,Kd,T-01 MB IgG1 I253V,< 0.001 nM
same,koff,T-01 MB IgG1 I253V,< 1e-07 s⁻¹
same,kon,T-01 MB IgG1 I253V,1.09e+06 M⁻¹ s⁻¹
same,Kd,T-01 MB IgG1 I253A,< 0.001 nM
same,koff,T-01 MB IgG1 I253A,< 1e-07 s⁻¹
same,kon,T-01 MB IgG1 I253A,763000 M⁻¹ s⁻¹
same,Kd,T-01 MB IgG1 P329G,0.249 nM
same,koff,T-01 MB IgG1 P329G,5.53e-05 s⁻¹
same,kon,T-01 MB IgG1 P329G,222000 M⁻¹ s⁻¹
same,Kd,[2],0.208 nM
same,koff,[2],0.000121 s⁻¹
same,kon,[2],581000 M⁻¹ s⁻¹
same,Kd,T-01 MB IgG1 K288A,< 0.001 nM
same,koff,T-01 MB IgG1 K288A,< 1e-07 s⁻¹
same,kon,T-01 MB IgG1 K288A,1.07e+06 M⁻¹ s⁻¹
same,binding result,T-01 MB IgG1 LALAP I253A,no binding (tested: serial dilutions 20-0.65 nM)
same,Kd,T-01 MB IgG1 WT,< 0.001 nM
same,koff,T-01 MB IgG1 WT,< 1e-07 s⁻¹
same,kon,T-01 MB IgG1 WT,963000 M⁻¹ s⁻¹
same,binding result,T-01 MB IgG2 K288A P329G,no binding (tested: serial dilutions 20-0.65 nM)
same,binding result,[3],no binding (tested: serial dilutions 20-0.65 nM)
same,Kd,T-01 MB IgG2 WT,0.606 nM
same,koff,T-01 MB IgG2 WT,0.000263 s⁻¹
same,kon,T-01 MB IgG2 WT,433000 M⁻¹ s⁻¹
B2,Kd,T-01 MB IgG4 WT,< 0.001 nM
same,koff,T-01 MB IgG4 WT,< 1e-07 s⁻¹
same,kon,T-01 MB IgG4 WT,835000 M⁻¹ s⁻¹
same,Kd,T-01 MB.v2 IgG1 WT,< 0.001 nM
same,koff,T-01 MB.v2 IgG1 WT,< 1e-07 s⁻¹
same,kon,T-01 MB.v2 IgG1 WT,312000 M⁻¹ s⁻¹
same,Kd,[1],< 0.001 nM
same,koff,[1],< 1e-07 s⁻¹
same,kon,[1],431000 M⁻¹ s⁻¹
same,Kd,T-01 MB IgG1 LALAP K288A,0.269 nM
same,koff,T-01 MB IgG1 LALAP K288A,0.000161 s⁻¹
same,kon,T-01 MB IgG1 LALAP K288A,601000 M⁻¹ s⁻¹
same,Kd,T-01 MB IgG1 I253V,< 0.001 nM
same,koff,T-01 MB IgG1 I253V,< 1e-07 s⁻¹
same,kon,T-01 MB IgG1 I253V,756000 M⁻¹ s⁻¹
same,Kd,T-01 MB IgG1 I253A,< 0.001 nM
same,koff,T-01 MB IgG1 I253A,< 1e-07 s⁻¹
same,kon,T-01 MB IgG1 I253A,605000 M⁻¹ s⁻¹
same,Kd,T-01 MB IgG1 P329G,0.0375 nM
same,koff,T-01 MB IgG1 P329G,2.49e-05 s⁻¹
same,kon,T-01 MB IgG1 P329G,665000 M⁻¹ s⁻¹
same,Kd,[2],0.0297 nM
same,koff,[2],1.66e-05 s⁻¹
same,kon,[2],558000 M⁻¹ s⁻¹
same,Kd,T-01 MB IgG1 K288A,< 0.001 nM
same,koff,T-01 MB IgG1 K288A,< 1e-07 s⁻¹
same,kon,T-01 MB IgG1 K288A,578000 M⁻¹ s⁻¹
same,Kd,T-01 MB IgG1 LALAP I253A,0.768 nM
same,koff,T-01 MB IgG1 LALAP I253A,0.000656 s⁻¹
same,kon,T-01 MB IgG1 LALAP I253A,853000 M⁻¹ s⁻¹
same,Kd,T-01 MB IgG1 WT,< 0.001 nM
same,koff,T-01 MB IgG1 WT,< 1e-07 s⁻¹
same,kon,T-01 MB IgG1 WT,672000 M⁻¹ s⁻¹
same,Kd,T-01 MB IgG2 K288A P329G,0.132 nM
same,koff,T-01 MB IgG2 K288A P329G,9.13e-05 s⁻¹
same,kon,T-01 MB IgG2 K288A P329G,694000 M⁻¹ s⁻¹
same,Kd,[3],0.684 nM
same,koff,[3],0.000437 s⁻¹
same,kon,[3],639000 M⁻¹ s⁻¹
same,Kd,T-01 MB IgG2 WT,2.03 nM
same,koff,T-01 MB IgG2 WT,0.00154 s⁻¹
same,kon,T-01 MB IgG2 WT,758000 M⁻¹ s⁻¹
B3,binding result,soluble CD4,no binding
B4,binding result,soluble CD4,no binding
B5,Kd,T-01 MB IgG4 WT,0.223 nM
same,koff,T-01 MB IgG4 WT,0.000305 s⁻¹
same,kon,T-01 MB IgG4 WT,1.37e+06 M⁻¹ s⁻¹
same,binding result,T-01 MB.v2 IgG1 WT,no binding (tested: serial dilutions 20-0.65 nM)
same,binding result,[1],no binding (tested: serial dilutions 20-0.65 nM)
same,binding result,T-01 MB IgG1 LALAP K288A,no binding (tested: serial dilutions 20-0.65 nM)
same,Kd,T-01 MB IgG1 I253V,< 0.001 nM
same,koff,T-01 MB IgG1 I253V,< 1e-07 s⁻¹
same,kon,T-01 MB IgG1 I253V,1.39e+06 M⁻¹ s⁻¹
same,Kd,T-01 MB IgG1 I253A,< 0.001 nM
same,koff,T-01 MB IgG1 I253A,< 1e-07 s⁻¹
same,kon,T-01 MB IgG1 I253A,1.39e+06 M⁻¹ s⁻¹
same,binding result,T-01 MB IgG1 P329G,no binding (tested: serial dilutions 20-0.65 nM)
same,Kd,[2],0.607 nM
same,koff,[2],0.000394 s⁻¹
same,kon,[2],649000 M⁻¹ s⁻¹
same,Kd,T-01 MB IgG1 K288A,< 0.001 nM
same,koff,T-01 MB IgG1 K288A,< 1e-07 s⁻¹
same,kon,T-01 MB IgG1 K288A,1.25e+06 M⁻¹ s⁻¹
same,binding result,T-01 MB IgG1 LALAP I253A,no binding (tested: serial dilutions 20-0.65 nM)
same,Kd,T-01 MB IgG1 WT,< 0.001 nM
same,koff,T-01 MB IgG1 WT,< 1e-07 s⁻¹
same,kon,T-01 MB IgG1 WT,1.19e+06 M⁻¹ s⁻¹
same,binding result,T-01 MB IgG2 K288A P329G,no binding (tested: serial dilutions 20-0.65 nM)
same,binding result,[3],no binding (tested: serial dilutions 20-0.65 nM)
same,Kd,T-01 MB IgG2 WT,1.61 nM
same,koff,T-01 MB IgG2 WT,0.00103 s⁻¹
same,kon,T-01 MB IgG2 WT,637000 M⁻¹ s⁻¹
B6,binding result,soluble CD4,no binding
same,Kd,BG5050 SOSIP.664 D368R,38 nM
same,koff,BG5050 SOSIP.664 D368R,0.000262 s⁻¹
same,kon,BG5050 SOSIP.664 D368R,6900 M⁻¹ s⁻¹

# Source: US20250276070A1 (HOSPITAL FOR SICK CHILDREN, published 2025)
